Measured values from publication PMC3924271.
Values joined by “and” are separate entries in the source; they are usually repeats but may differ in a detail not shown here. Equal values may be shown once.

Key:
[1] = molecular target: Rabbit skeletal muscle actin, monomeric (G-actin) (rabbit) (UniProt P68135); assay: SPR
[2] = molecular target: Rabbit skeletal muscle actin, monomeric (G-actin) (rabbit) (UniProt P68135); assay: cross-linking
[3] = molecular target: Rabbit skeletal muscle actin, filamentous (F-actin) (rabbit) (UniProt P68135)

| Substance | Kd [1] [µM] | kon [1] [M⁻¹ s⁻¹] | percent of actin and PfADF1 linked by EDC [2] | filament pitch by negative-stain TEM, similar concentration of PfADF1 [3] [nm] |
| --- | --- | --- | --- | --- |
| PfADF1.K72A (natural protein) | 33 | 64.2 |  |  |
| Plasmodium falciparum actin depolymerizing factor 1 (PfADF1), wild type (natural protein) | 3.5 | 95.9 | 10% and 25% | 39.4 |
